Results: publication PMC6985235, “Endomembrane Protein Trafficking Regulated by a TvCyP2 Cyclophilin in the Protozoan Parasite, Trichomonas vaginalis” (Scientific Reports, 2020)

Assays:
[1] = target: T1, GST-TvCyP2 (Trichomonas vaginalis, UniProt A2DLL4 1-186); assay: pull-down; GST pull-down: 30 picomoles of GST or GST-fusion protein on 20 μl glutathione beads with 35 nM His-tagged protein in 1 ml TEN200 (1 mM EDTA, 200 mM NaCl, 20 mM Tris-HCl pH 7.4), 4 °C overnight; washes with 0.1% TritonX-100; anti-6xHis Western blot; in Fig. 3D also with DMSO or 5 μM cyclosporine A (binding greatly diminished); details: both partners purified
T1 construct: 186 aa; source: E. coli DH5α, purified (glutathione-conjugated beads)

[2] = target: T2, GST-TvCyP2(R75A) (Trichomonas vaginalis, UniProt A2DLL4 1-186, R75A); assay: as above; details: both partners purified
T2 construct: source: E. coli DH5α, purified (glutathione-conjugated beads)

B1: His-TvCyP1 (enzyme)
chain: not shown
notes: TvCyP1 cyclophilin of Trichomonas vaginalis; ~19-kDa band; source: purified
binding result [1]: binds
binding result [2]: binds
